Source: PMC10870172

Legend:
Assay in all cases: other fluorescence titration; single-molecule FRET on freely diffusing ClpB hexamers (1:100 labeled:unlabeled, ~50 pM labeled, ~5 nM total) with increasing concentrations of unlabeled κ-casein; ratio of H2MM-derived state 1 population with and without κ-casein fitted to a simple binding isotherm; 25 mM HEPES, 25 mM KCl, 10 mM MgCl2, 2 mM ATP, 0.01% Tween 20, pH 8, 22°C
[1] = molecular target: ClpB PL2 construct A281C-S359C (wt), hexamer with one labeled protomer (Thermus thermophilus) (UniProt Q9RA63)
[2] = molecular target: ClpB PL1 construct S236C-S359C (wt), hexamer with one labeled protomer (Thermus thermophilus) (UniProt Q9RA63)
[3] = molecular target: ClpB PL2 BB construct A281C-S359C with E271A/E668A, hexamer with one labeled protomer (Thermus thermophilus) (UniProt Q9RA63)
[4] = molecular target: ClpB PL3 construct S359C-Y646C (wt), hexamer with one labeled protomer (Thermus thermophilus) (UniProt Q9RA63)

- Kd [1]: 11300 nM
- Kd [2]: 2900 nM
- Kd [3]: 300 nM
- Kd [4]: 900 nM
Substance: κ-casein (from UniProt P02668 22-190) (natural protein)
